The record followed here is the supplement of paper PMC9170038.

In data set [1] the test system is MS2 coat protein. The data set can be described thus: apparent KD of MS2 coat protein, switch ON state; designed switch direction (-1 OFF switch, 1 ON switch): 1; higher = weaker reporter binding. Particulars: FMN input: 0 or 200 uM; Eterna round: R93 (includes R88 designs). In short, it runs like this:
(§1)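 Designed RNA switches were transcribed on-chip from Illumina sequencing clusters and titrated with SNAP-549-labelled MS2 coat protein in twofold steps from 0.7 or 1.5 nM up to 3 µM. Each step lasted 0.8–1.5 h at first and 10–20 min by the end, in 100 mM Tris-HCl pH 7.5, 80 mM KCl and 4 mM MgCl2, without or with constant ligand. Apparent KD is the median, for each design, of fits to normalised cluster binding curves.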

In data set [2] the test system is MS2 coat protein. Kind of data set: apparent KD of MS2 coat protein, switch OFF state (with FMN for OFF switches, without FMN for ON switches); designed switch direction (-1 OFF switch, 1 ON switch): 1; higher = weaker reporter binding. Particulars: FMN input: 0 or 200 uM; Eterna round: R93 (includes R88 designs). Put shortly: as §1

In the case of “CGGCUACAUGAGGAUCACCCAUGUCAGCCGAGGGCAGGAUAUGUGGUUCAUUCUCAAGCAACAGAAGGGUCAAAAG [Istiacedi]”, the results for the “apparent KD of MS2 coat protein” value in the data set with MS2 coat protein [1] and in the data set with MS2 coat protein [2] were 16.9 nM and 18.7 nM, respectively.

As to “GAAAAACAUGAGGAUCACCCAUGUAAUACAACAUCAGGAUAUUGAUUUUACUAUGUAUUGCAAGAAGGGAUGAAAG [Mat - Same State 1 - Hyphema mod - D100]”, the “apparent KD of MS2 coat protein” value in the data set on MS2 coat protein [1] worked out at 57.2 nM; in the data set on MS2 coat protein [2] it was 42.6 nM.

As for “GAAAAACAUGAGGAUCACCCAUGUAGAAAUAUGGGAGGAUAUACAAAGACGAAAGUCAAAGUAGAAGGCCUGAUAG [JL S1 M-MoE mod 3]”, the “apparent KD of MS2 coat protein” value was 28.6 nM in the data set with MS2 coat protein [1] and 79.2 nM in the data set on MS2 coat protein [2].

Take “GAAAAACAUGAGGAUCACCCAUGUAGAAAUAUGGGAGGAUAUACAAAGUCGAAAGACAAAGUAGAAGGCCUAAAAG [Mat - Same State 1 - Eli mod - D2]”: the “apparent KD of MS2 coat protein” value came to 24.6 nM in the data set on MS2 coat protein [1] and 67.1 nM in the data set on MS2 coat protein [2].

As for “GAAAAACAUGAGGAUCACCCAUGUAGAAAUAUGGGAGGAUAUACGAAGUCGAAAGACAAAGUAGAAGGCCUAAAAG [Garnet 27]”, the “apparent KD of MS2 coat protein” value was determined as 27.9 nM with MS2 coat protein [1] and 50.4 nM in the data set with MS2 coat protein [2].

Regarding “GAAAAACAUGAGGAUCACCCAUGUGAUAACAUGGGAGGAUAUACAAGGACGAUAGUCAAAGUAGAAGGCCUAAAAG [Garnet 61]”, the “apparent KD of MS2 coat protein” value turned out to be 289 nM with MS2 coat protein [1] and 47.9 nM with MS2 coat protein [2].

As for “GAAAAACAUGAGGAUCACCCAUGUGAUAAUAUGGGAGGAUAUACGAAGACGAAAGUCAAAGUAGAAGGCCUAAAAG [Garnet 36]”, the “apparent KD of MS2 coat protein” value in the data set with MS2 coat protein [1] was determined as 57.5 nM; in the data set on MS2 coat protein [2], 81.7 nM.

For “GAAAAACAUGAGGAUCACCCAUGUGUAAACAUGGGAGGAUAUACGAAGACGUAAGUCAAAGUAGAAGGCCUAAAAG [Garnet 36]”, the results for the “apparent KD of MS2 coat protein” value in the data set with MS2 coat protein [1] and with MS2 coat protein [2] were 47.1 nM and 24.9 nM, respectively.

In the case of “GAAAAGAAAACACAGGAUAUCCAAAAGAAAACAUGAGGAUCACCCAUGUAAAGAAAAUAAAAAUGGGAGAAGGGUGAAAGAAAGA [Mat - Same State 2 - JL mod - D42]”, the “apparent KD of MS2 coat protein” value came to 20.9 nM with MS2 coat protein [1] and 53.6 nM in the data set on MS2 coat protein [2].

Regarding “GAAAUACAUGAGGAUCACCCAUGUUAGGUGAUUCAAGGAUAUCAAGGUAAAUAAAAACCUUGAGAAGGUGAAUAAA [JR_SS001_Sub205]”, the entries for the “apparent KD of MS2 coat protein” value in the data set with MS2 coat protein [1] and in the data set on MS2 coat protein [2] were 177 nM and 163 nM, respectively.

As to “GAAAUACAUGAGGAUCACCCAUGUUAGGUGGAUCAAGGAUAUCAAGGUAAAUAAAAACCUUGAGAAGGUGAAUAAA [JR_SS001_Sub204]”, the “apparent KD of MS2 coat protein” value in the data set with MS2 coat protein [1] was 87.8 nM; in the data set with MS2 coat protein [2], 141 nM.

As to “GAAAUACAUGAGGAUCACCCAUGUUAGGUGGGUCAAGGAUAUUGAUAUAAAUAAAAAACUCGAGAAGGUGAAUAAA [JR_SS001_Sub201]”, the “apparent KD of MS2 coat protein” value in the data set on MS2 coat protein [1] is 229 nM; in the data set on MS2 coat protein [2], 179 nM.

“GAAGAACAUGAGGAUCACCCAUGUGAGAACAUGGGAGGAUAUACGAGGACGAAAGUCAAAGUAGAAGGCCUAAGAG [Garnet 87]”: the “apparent KD of MS2 coat protein” value in the data set on MS2 coat protein [1] was determined as 104 nM; in the data set with MS2 coat protein [2], 29.8 nM.

As for “GAAGACAUAGUUCAGGAUAUAUGAAUAGUCACAUGAGGAUCACCCAUGUCCAUUUAUAUGGGCACAUAGAAGGGAGGUAGUUAUC [SameState2 Malc#25]”, the “apparent KD of MS2 coat protein” value with MS2 coat protein [1] turned out to be 618 nM; in the data set with MS2 coat protein [2] it was 380 nM.

As to “GACAGACAUGAGGAUCACCCAUGUAGAAUUAUGGGAGGAUAUACAAAGACGAGAGUCAGAGUAGAAGGCCUAGGAA [salish99-ss1-167]”, the “apparent KD of MS2 coat protein” value turned out to be 23.2 nM in the data set on MS2 coat protein [1] and 52.8 nM with MS2 coat protein [2].

As for “GAUAGGAAGAGAGAGGAUAUCCAAAGGAAAACAUGAGGAUCACCCAUGUAAAAGGUAGGAAAUUGGGAGAAGGCUCAAGAGAGAG [salish99-ss2-075]”, the “apparent KD of MS2 coat protein” value was found to be 11.6 nM with MS2 coat protein [1] and 31.9 nM in the data set on MS2 coat protein [2].

For the sequence “GCAAAACAUGAGGAUCACCCAUGUGAAAAGAAUGUAGGAUAUGGGCUCAGAAAUAGCAGCCCAGAAGGGCGAAGAA [Xequamara]”, the “apparent KD of MS2 coat protein” value amounted to 21.9 nM in the data set with MS2 coat protein [1] and 24.8 nM with MS2 coat protein [2].

Turning to “GCCGGUUAUGAGCAGGAUAUGUCACCGCUAACAUGAGGAUCACCCAUGUGAGCAAAAUCGAGGUCACAGAAGGGUUCCGGCAAAA [Disoerce]”, the entries for the “apparent KD of MS2 coat protein” value with MS2 coat protein [1] and in the data set with MS2 coat protein [2] were 17.8 nM and 41.9 nM, respectively.

On to “GGGAGACAUGAGGAUCACCCAUGUGAGAAGAGGCGAGGAUAUCGAAAGAAAGAAGAGAAACGAGAAGGCGCGAGUG [salish99-SS1-058]”, for which the “apparent KD of MS2 coat protein” value in the data set on MS2 coat protein [1] is 64.8 nM; in the data set with MS2 coat protein [2], 82 nM.

Consider “GGGAGGAAGAGAGAGGAUAUCCAAAGGAAAACAUGAGGAUCACCCAUGUAAAAGGUAGGAAAUUGGGAGAAGGCUCAAAAGAGUG [salish99-ss2-043]”, for which the figures for the “apparent KD of MS2 coat protein” value in the data set on MS2 coat protein [1] and in the data set with MS2 coat protein [2] were 13.7 nM and 22.2 nM, respectively.
